Experimental data from US20150132331A1.

Target: HA stem domain construct mutant M6 (A/California/05/2009 (H1N1) HA stem fused to foldon, refolded trimer) (Influenza A virus A/California/05/2009 (H1N1))

“antibody C179 (Mouse IgG) (TAKAR Bio INC.)” showed a fold better recognition than commercial full-length HA of 30 fold.
